The data set is described as follows: melting temperature; melt of duplexes. Conditions: sodium 0.0675 M; strand 1 µM.
The Tm is the temperature at the midpoint of the melting transition. As for “CGACGTGCTGAATGTGCTG+CAGCACATATAGCACGTCG (((((((((..((((((((+))))))))..)))))))))”, the Tm turned out to be 53.7 °C.

For the substance “CGACGTGCCGGATGTGCTG+CAGCACATGCTGCACGTCG ((((((((.(.((((((((+)))))))).).))))))))”, the Tm is 51.3 °C.

For the substance “CGACGTGCTCCATGTGCTG+CAGCACATAATGCACGTCG ((((((((...((((((((+))))))))...))))))))”, the Tm came out at 48.4 °C.

Turning to “CGACGTGCTAGATGTGCTG+CAGCACATAGAGCACGTCG (((((((((..((((((((+))))))))..)))))))))”, the Tm stood at 53.8 °C.

On to “CGACGTGCCCAATGTGCTG+CAGCACATCCAGCACGTCG ((((((((...((((((((+))))))))...))))))))”, for which the Tm is 49 °C.

With “CGACGTGCCTAATGTGCTG+CAGCACATGCCGCACGTCG ((((((((...((((((((+))))))))...))))))))”, the Tm was found to be 48.5 °C.

As to “CGACGTGCAATATGTGCTG+CAGCACATATGGCACGTCG ((((((((.((((((((((+)))))))))).))))))))”, the Tm came out at 55.6 °C.

As for “CGACGTGCACAATGTGCTG+CAGCACATCTCGCACGTCG ((((((((...((((((((+))))))))...))))))))”, the Tm turned out to be 45.1 °C.

Regarding “CGACGTGCGTCATGTGCTG+CAGCACATAGTGCACGTCG ((((((((...((((((((+))))))))...))))))))”, the Tm turned out to be 45.9 °C.

As to “CGACGTGCCAAATGTGCTG+CAGCACATCTTGCACGTCG ((((((((.(.((((((((+)))))))).).))))))))”, the Tm worked out at 48.7 °C.

On to “CGACGTGCGTTATGTGCTG+CAGCACATGGAGCACGTCG ((((((((...((((((((+))))))))...))))))))”, for which the Tm stood at 54.8 °C.

For the substance “CGACGTGCGCAATGTGCTG+CAGCACATCGCGCACGTCG ((((((((((.((((((((+)))))))).))))))))))”, the Tm amounted to 60.3 °C.

Consider “CGACGTGCATTATGTGCTG+CAGCACATCCGGCACGTCG ((((((((...((((((((+))))))))...))))))))”, for which the Tm turned out to be 47.3 °C.

For “CGACGTGCGGAATGTGCTG+CAGCACATACTGCACGTCG ((((((((.(.((((((((+)))))))).).))))))))”, the Tm was determined as 54.3 °C.

Consider “CGACGTGCGCAATGTGCTG+CAGCACATTTCGCACGTCG (((((((((.(((((((((+))))))))).)))))))))”, for which the Tm came to 57.5 °C.

With “CGACGTGCCTCATGTGCTG+CAGCACATACTGCACGTCG ((((((((...((((((((+))))))))...))))))))”, the Tm was found to be 47 °C.

As to “CGACGTGCATGATGTGCTG+CAGCACATCCAGCACGTCG ((((((((..(((((((((+)))))))))..))))))))”, the Tm was determined as 53.6 °C.

“CGACGTGCCGCATGTGCTG+CAGCACATGGTGCACGTCG ((((((((..(((((((((+)))))))))..))))))))”: the Tm stood at 52 °C.

“CGACGTGCACAATGTGCTG+CAGCACATAACGCACGTCG ((((((((...((((((((+))))))))...))))))))”: the Tm was determined as 45.3 °C.

In the case of “CGACGTGCCAGATGTGCTG+CAGCACATGAAGCACGTCG ((((((((...((((((((+))))))))...))))))))”, the Tm was determined as 50.5 °C.

As to “CGACGTGCAGCATGTGCTG+CAGCACATAACGCACGTCG ((((((((...((((((((+))))))))...))))))))”, the Tm worked out at 47.6 °C.

“CGACGTGCCAAATGTGCTG+CAGCACATCACGCACGTCG ((((((((...((((((((+))))))))...))))))))”: the Tm is 47.3 °C.

“CGACGTGCGTTATGTGCTG+CAGCACATAGGGCACGTCG ((((((((..(((((((((+)))))))))..))))))))”: the Tm came out at 52.5 °C.

“CGACGTGCTTCATGTGCTG+CAGCACATGCTGCACGTCG ((((((((..(((((((((+)))))))))..))))))))”: the Tm amounted to 53.1 °C.

In the case of “CGACGTGCGGGATGTGCTG+CAGCACATCTTGCACGTCG ((((((((..(((((((((+)))))))))..))))))))”, the Tm was 57.3 °C.

Consider “CGACGTGCGCTATGTGCTG+CAGCACATTAAGCACGTCG ((((((((...((((((((+))))))))...))))))))”, for which the Tm worked out at 52.8 °C.

As to “CGACGTGCACCATGTGCTG+CAGCACATAAGGCACGTCG ((((((((...((((((((+))))))))...))))))))”, the Tm stood at 44.1 °C.

Take “CGACGTGCAATATGTGCTG+CAGCACATTTCGCACGTCG ((((((((.(.((((((((+)))))))).).))))))))”: the Tm came out at 50.1 °C.

With “CGACGTGCCTGATGTGCTG+CAGCACATTCCGCACGTCG ((((((((...((((((((+))))))))...))))))))”, the Tm is 48.5 °C.

With “CGACGTGCACAATGTGCTG+CAGCACATTGTGCACGTCG (((((((((((((((((((+)))))))))))))))))))”, the Tm turned out to be 63 °C.

Regarding “CGACGTGCGTAATGTGCTG+CAGCACATTGAGCACGTCG ((((((((..(((((((((+)))))))))..))))))))”, the Tm stood at 56.6 °C.

As to “CGACGTGCCGGATGTGCTG+CAGCACATGTCGCACGTCG ((((((((...((((((((+))))))))...))))))))”, the Tm was determined as 49.4 °C.

Take “CGACGTGCGAGATGTGCTG+CAGCACATGTTGCACGTCG ((((((((.(.((((((((+)))))))).).))))))))”: the Tm was found to be 54.3 °C.

With “CGACGTGCCTTATGTGCTG+CAGCACATCAAGCACGTCG ((((((((.(.((((((((+)))))))).).))))))))”, the Tm turned out to be 48.8 °C.

Take “CGACGTGCAGTATGTGCTG+CAGCACATGTGGCACGTCG ((((((((...((((((((+))))))))...))))))))”: the Tm was found to be 50.4 °C.

As to “CGACGTGCACGATGTGCTG+CAGCACATAAAGCACGTCG ((((((((...((((((((+))))))))...))))))))”, the Tm turned out to be 46.8 °C.

Turning to “CGACGTGCCTCATGTGCTG+CAGCACATCCGGCACGTCG (((((((((..((((((((+))))))))..)))))))))”, the Tm worked out at 51.2 °C.

On to “CGACGTGCCGAATGTGCTG+CAGCACATACTGCACGTCG ((((((((.(.((((((((+)))))))).).))))))))”, for which the Tm came to 50.2 °C.

For the substance “CGACGTGCTGAATGTGCTG+CAGCACATCTGGCACGTCG ((((((((...((((((((+))))))))...))))))))”, the Tm came out at 51.7 °C.

Consider “CGACGTGCTCCATGTGCTG+CAGCACATAAGGCACGTCG ((((((((...((((((((+))))))))...))))))))”, for which the Tm was determined as 49 °C.

For “CGACGTGCAGTATGTGCTG+CAGCACATAAAGCACGTCG ((((((((..(((((((((+)))))))))..))))))))”, the Tm came out at 51.7 °C.

As for “CGACGTGCGTCATGTGCTG+CAGCACATCATGCACGTCG ((((((((.(.((((((((+)))))))).).))))))))”, the Tm was 50.8 °C.

Turning to “CGACGTGCCGGATGTGCTG+CAGCACATGCAGCACGTCG ((((((((.(.((((((((+)))))))).).))))))))”, the Tm is 53.1 °C.

On to “CGACGTGCCCAATGTGCTG+CAGCACATAATGCACGTCG ((((((((...((((((((+))))))))...))))))))”, for which the Tm stood at 47.6 °C.

With “CGACGTGCTGCATGTGCTG+CAGCACATACGGCACGTCG ((((((((.(.((((((((+)))))))).).))))))))”, the Tm came out at 53.6 °C.

On to “CGACGTGCGCCATGTGCTG+CAGCACATAGGGCACGTCG ((((((((.(.((((((((+)))))))).).))))))))”, for which the Tm is 52.8 °C.

Regarding “CGACGTGCAGGATGTGCTG+CAGCACATATAGCACGTCG ((((((((...((((((((+))))))))...))))))))”, the Tm came to 50.6 °C.

In the case of “CGACGTGCAACATGTGCTG+CAGCACATCTAGCACGTCG ((((((((.(.((((((((+)))))))).).))))))))”, the Tm stood at 48.2 °C.

“CGACGTGCTCCATGTGCTG+CAGCACATTAGGCACGTCG ((((((((...((((((((+))))))))...))))))))”: the Tm came out at 48.4 °C.

As to “CGACGTGCAGAATGTGCTG+CAGCACATTCAGCACGTCG ((((((((.((((((((((+)))))))))).))))))))”, the Tm is 57.9 °C.

In the case of “CGACGTGCCTTATGTGCTG+CAGCACATTTCGCACGTCG ((((((((...((((((((+))))))))...))))))))”, the Tm turned out to be 47.1 °C.

In the case of “CGACGTGCACCATGTGCTG+CAGCACATGCCGCACGTCG ((((((((..(((((((((+)))))))))..))))))))”, the Tm stood at 48.6 °C.

On to “CGACGTGCATAATGTGCTG+CAGCACATGTAGCACGTCG ((((((((...((((((((+))))))))...))))))))”, for which the Tm stood at 52.6 °C.

With “CGACGTGCAACATGTGCTG+CAGCACATTCTGCACGTCG (((((((((..((((((((+))))))))..)))))))))”, the Tm was determined as 50.1 °C.

“CGACGTGCGCGATGTGCTG+CAGCACATATGGCACGTCG ((((((((...((((((((+))))))))...))))))))”: the Tm was 50.1 °C.

Consider “CGACGTGCACCATGTGCTG+CAGCACATCAAGCACGTCG ((((((((...((((((((+))))))))...))))))))”, for which the Tm worked out at 42.8 °C.

Turning to “CGACGTGCACCATGTGCTG+CAGCACATACTGCACGTCG (((((((((..((((((((+))))))))..)))))))))”, the Tm amounted to 44.9 °C.

With “CGACGTGCGAGATGTGCTG+CAGCACATTTAGCACGTCG ((((((((.(.((((((((+)))))))).).))))))))”, the Tm came to 53.3 °C.

For the substance “CGACGTGCGATATGTGCTG+CAGCACATTCAGCACGTCG ((((((((...((((((((+))))))))...))))))))”, the Tm is 52.8 °C.

Take “CGACGTGCACCATGTGCTG+CAGCACATTGAGCACGTCG ((((((((.(.((((((((+)))))))).).))))))))”: the Tm was 47.2 °C.

Consider “CGACGTGCCGCATGTGCTG+CAGCACATGAAGCACGTCG ((((((((..(((((((((+)))))))))..))))))))”, for which the Tm was 53.8 °C.

With “CGACGTGCAATATGTGCTG+CAGCACATAACGCACGTCG ((((((((..(((((((((+)))))))))..))))))))”, the Tm was 50.7 °C.

For the substance “CGACGTGCTTTATGTGCTG+CAGCACATAGCGCACGTCG ((((((((..(((((((((+)))))))))..))))))))”, the Tm is 47.9 °C.

In the case of “CGACGTGCTCTATGTGCTG+CAGCACATTGGGCACGTCG ((((((((.(.((((((((+)))))))).).))))))))”, the Tm is 53.4 °C.

For “CGACGTGCAAAATGTGCTG+CAGCACATAGAGCACGTCG ((((((((...((((((((+))))))))...))))))))”, the Tm came out at 48.9 °C.

Regarding “CGACGTGCGACATGTGCTG+CAGCACATTGCGCACGTCG (((((((((..((((((((+))))))))..)))))))))”, the Tm is 55.3 °C.

The record behind these values is the array DNA melting data of Ke et al..
